Laboratory results published in US20230051715A1 (MABWELL THERAPEUTICS, published 2023).
Positions count from the first letter of the chain named. Names may count otherwise.

What was measured:
[1] = molecular target: T1, rat C1s (produced in house) (rat, UniProt Q6P6T1 16-688); assay: BLI (Octet RED96e), antibody on AHC biosensor; C1s Species: Rat; R^2 0.9776
T1 construct: also called RaC1s
T1 sequence: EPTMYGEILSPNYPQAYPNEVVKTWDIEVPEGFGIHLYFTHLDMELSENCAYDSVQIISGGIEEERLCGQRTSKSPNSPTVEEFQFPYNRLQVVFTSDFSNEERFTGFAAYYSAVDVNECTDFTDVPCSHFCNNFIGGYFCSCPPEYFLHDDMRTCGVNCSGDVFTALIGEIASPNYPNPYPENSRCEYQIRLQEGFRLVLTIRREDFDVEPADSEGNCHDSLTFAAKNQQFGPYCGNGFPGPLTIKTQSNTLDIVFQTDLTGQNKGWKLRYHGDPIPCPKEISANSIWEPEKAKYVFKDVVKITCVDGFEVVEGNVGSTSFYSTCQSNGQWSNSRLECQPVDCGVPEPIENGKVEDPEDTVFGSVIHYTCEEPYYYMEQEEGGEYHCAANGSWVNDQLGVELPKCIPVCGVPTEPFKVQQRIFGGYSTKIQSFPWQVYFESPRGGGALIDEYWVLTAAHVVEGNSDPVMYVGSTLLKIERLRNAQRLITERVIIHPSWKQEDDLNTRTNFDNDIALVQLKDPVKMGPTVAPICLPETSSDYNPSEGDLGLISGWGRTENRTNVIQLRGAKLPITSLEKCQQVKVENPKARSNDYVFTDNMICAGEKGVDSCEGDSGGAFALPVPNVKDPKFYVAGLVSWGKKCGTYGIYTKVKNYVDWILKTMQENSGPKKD
Text: (§1) At last, analyte was dissociated in 1×KB for 360 sec. Data analysis was done using OCTET® Data Analysis HT Software (Sartorius AG).

[2] = molecular target: T2, human C1s deletion mutant 3 (NHCΔ33) (human, UniProt P09871 16-404); assay: ELISA, C1s fragment coated on plate; hz2-8(H1L2 G80A), first of the two values
T2 construct: C-terminal 6xHis tag; also called human C1s (NHCΔ33); C1s (NHCΔ33)
T2 sequence: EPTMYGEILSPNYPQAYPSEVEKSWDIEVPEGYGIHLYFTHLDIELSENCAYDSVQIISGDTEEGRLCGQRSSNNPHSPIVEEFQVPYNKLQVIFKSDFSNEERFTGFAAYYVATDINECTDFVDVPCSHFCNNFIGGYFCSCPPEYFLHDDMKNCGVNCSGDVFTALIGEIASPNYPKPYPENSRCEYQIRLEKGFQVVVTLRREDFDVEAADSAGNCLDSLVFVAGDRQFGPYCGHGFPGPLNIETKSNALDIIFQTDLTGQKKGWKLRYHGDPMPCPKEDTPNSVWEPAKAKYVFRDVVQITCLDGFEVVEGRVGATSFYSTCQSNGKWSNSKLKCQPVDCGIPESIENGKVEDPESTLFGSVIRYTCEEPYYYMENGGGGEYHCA
Procedure: ELISA was carried out by first coating 96-well plates with 200 ng/well of full-length or truncated C1s proteins overnight. The next morning, plates were blocked with SuperBlock T20 blocking buffer (Thermo Scientific 37536) for 1 h with gentle shaking. Then, various concentrations of anti-C1s antibodies diluted in SuperBlock T20 blocking buffer were added to the plates and incubated for 1 h with gentle shaking. Mouse IgG (Sigma-Aldrich 15381) and human IgG1 (BioXCell BP0297) were used as negative controls. The plates were washed before incubating with HRP conjugated secondary antibodies diluted in SuperBlock T20 blocking buffer (goat anti-mouse IgG (H+L) cross-adsorbed secondary antibody HRP (Invitrogen G-21040) or goat anti-human IgG antibody, HRP conjugate (Millipore AP309P)) for 1 h with gentle shaking. At last, the plates were washed and color developed with ELISA liquid HRP substrate (Sigma-Aldrich), followed by stopping the reaction with addition of 1M H₂SO₄ in the same volume as the ELISA liquid substrate. Bound antibody was measured by absorbance at OD₄₅₀ₙₘ.
Binding of various anti-C1s antibodies to human C1s (NHCΔ33) (SEQ ID NO: 111) was carried out by ELISA as described in Example 4, and results are shown in FIG. 6A.

[3] = molecular target: T3, full-length human C1s (produced in house) (human, UniProt P09871 16-688); assay: BLI (Octet RED96e), antibody on AHC biosensor; C1s Species: Human; R^2 0.9997
T3 construct: Called full-length; Partly auto-cleaved at R422-I423 on blots; also called HuC1s; Hu C1s
T3 sequence: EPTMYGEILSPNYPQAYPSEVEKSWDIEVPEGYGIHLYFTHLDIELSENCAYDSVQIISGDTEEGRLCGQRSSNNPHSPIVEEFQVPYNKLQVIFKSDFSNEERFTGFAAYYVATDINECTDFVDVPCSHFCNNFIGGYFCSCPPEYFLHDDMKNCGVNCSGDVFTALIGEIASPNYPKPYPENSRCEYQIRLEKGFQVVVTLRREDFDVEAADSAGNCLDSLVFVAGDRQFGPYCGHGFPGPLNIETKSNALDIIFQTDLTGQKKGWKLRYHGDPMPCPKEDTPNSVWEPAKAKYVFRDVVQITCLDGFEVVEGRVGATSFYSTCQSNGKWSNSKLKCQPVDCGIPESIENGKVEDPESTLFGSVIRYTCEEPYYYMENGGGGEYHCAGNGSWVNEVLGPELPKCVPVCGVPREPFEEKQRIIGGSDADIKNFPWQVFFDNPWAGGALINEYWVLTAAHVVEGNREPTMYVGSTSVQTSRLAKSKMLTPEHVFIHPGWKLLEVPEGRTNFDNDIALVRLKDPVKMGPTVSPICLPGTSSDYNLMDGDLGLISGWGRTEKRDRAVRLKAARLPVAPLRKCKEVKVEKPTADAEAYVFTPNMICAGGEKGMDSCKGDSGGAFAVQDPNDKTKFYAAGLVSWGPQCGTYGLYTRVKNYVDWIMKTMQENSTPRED
Text: as §1

B1: Anti-C1s antibody 2-8 (antibody, V domains shown)
VH: EVQLQQSGAELVRPGALVKLSCKASGFNIKEYYMHWVKQRPEQGLEWIGWIDPENGDTIYDPKFQGKASITADTSSNTAYLQLSSLTSEDTAVYYCARSRLFFAYWGQGTLVTVSA
VL: DIVMTQSHKFMSTSVGDRVSFTCKASQDVRTAVDWYQQKPGQSPKLLIYSASYRYTGVPDRFTGTGSGTDFTFTISSVQAEDLAVYFCQQQYTTPYTFGGGTKLEIKT
notes: the HC/LC entries may hold it too; also called clone 2-8
B1 was tested, and the Kd [1] was 17 nM, the koff [1] was 0.0012 s⁻¹ and the kon [1] was 68000 M⁻¹ s⁻¹.

B2: Anti-C1s antibody hz2-8 (H1L2 G80A) (antibody, V domains shown)
VH: QVQLVQSGAEVKKPGASVKVSCKASGFNIKEYYMHWVRQAPEQGLEWMGWIDPENADTIYAQKFQGRVTITADTSTNTAYMELSSLRSEDTAVYYCARSRLFFAYWGQGTLVTVSS
VL: DIQMTQSPKSLSASVGDRVTITCRASQDVRTALDWYQQKPGQSPKLLIYSASYRYSGVPSRFSGSGSGTDFTLTISSLQPEDFATYYCQQQYTTPYTFGQGTKLEIKR
notes: Humanized variant with G80A in HC CDR2 (already in the entry), human IgG1 / kappa
B2 gave an EC50 [2] of 8 ng/mL.

B3: Anti-C1s antibody hz2-8 (H1L2 G80A/T82A) (antibody, V domains shown)
VH: B2 VH with T58A
VL: B2 VL
notes: Humanized variant with G80A and T82A in HC CDR2 (already in the entry), human IgG1 / kappa
B3 was tested, and the Kd [3] was 0.7 nM, the koff [3] was 0.0003 s⁻¹ and the kon [3] was 430000 M⁻¹ s⁻¹.
